Consider 2 proteins from paper PMC11555622.

A short description of data set [1]: domain-selective surface biotinylation, apical vs basolateral. The conditions noted are these: glycan lost.
Data set [2] in a line: surface biotinylation, amount of DUOX2 at cell surface. The conditions noted are these: glycan lost; control: wild type DUOXA2.
A short description of data set [3]: immunoblot of HEK293 lysate. The settings on record: glycan lost. A general note: In western blotting, separated proteins are transferred to a membrane and probed.
A short description of data set [4]: confocal microscopy, polarized MDCK. The conditions noted are these: glycan lost.
The nature of data set [5]: surface biotinylation, amount of DUOX1 at cell surface. The settings on record: glycan lost; control: wild type DUOXA1.

B1: DUOXA2: N84Q/N109Q/N121Q (protein)
parent chain: MTLWNGVLPFYPQPRHAAGFSVPLLIVILVFLALAASFLLILPGIRGHSRWFWLVRVLLSLFIGAEIVAVHFSAEWFVGTVNTNTSYKAFSAARVTARVRLLVGLEGINITLTGTPVHQLNETIDYNEQFTWRLKENYAAEYANALEKGLPDPVLYLAEKFTPSSPCGLYHQYHLAGHYASATLWVAFCFWLLSNVLLSTPAPLYGGLALLTTGAFALFGVFALASISSVPLCPLRLGSSALTTQYGAAFWVTLATGVLCLFLGGAVVSLQYVRPSALRTLLDQSAKDCSQERGGSPLILGDPLHKQAALPDLKCITTNL
Turning to B1, the localisation_or_trafficking result in data set [1] (control: wild type DUOXA2) was “no change”; in data set [2] it was “decreases”; in data set [4] (control: wild type DUOXA2), “no change”. Moreover, in data set [3] (control: wild type DUOXA2), the expression_or_secretion entry is recorded as “decreases”.

B2: DUOXA1: N84Q/N109Q/N121Q (protein)
parent chain: MATLGHTFPFYAGPKPTFPMDTTLASIIMIFLTALATFIVILPGIRGKTRLFWLLRVVTSLFIGAAILAVNFSSEWSVGQVSTNTSYKAFSSEWISADIGLQVGLGGVNITLTGTPVQQLNETINYNEEFTWRLGENYAEEYAKALEKGLPDPVLYLAEKFTPRSPCGLYRQYRLAGHYTSAMLWVAFLCWLLANVMLSMPVLVYGGYMLLATGIFQLLALLFFSMATSLTSPCPLHLGASVLHTHHGPAFWITLTTGLLCVLLGLAMAVAHRMQPHRLKAFFNQSVDEDPMLEWSPEEGGLLSPRYRSMADSPKSQDIPLSEASSTKAYCKEAHPKDPDCAL
With B2, the localisation_or_trafficking entry was “changes” in data set [1] (control: wild type DUOXA1), “decreases” in data set [5] and “changes” in data set [4] (control: wild type DUOXA1). The expression_or_secretion entry in data set [3] (control: wild type DUOXA1) is “no change”.
